Data reported in US20250145729A1 (DENALI THERAPEUTICS, published 2025).
Positions count from the first letter of the chain named. Names may count otherwise.

B1: LLB2-1 (Fc fusion)
chain: APELLGGPSVFLFPPKPKDTLMISRTPEVTCVVVDVSHEDPEVKFNWYVDGVEVHNAKTKPREEQYNSTYRVVSVLTVLHQDWLNGKEYKCKVSNKALPAPIEKTISKAKGQPREPQVYTLPPSRDELTKNQVSLTCLVKGFYPSDIAVLWNSRFSLENNYKTTPPVLDSDGSFFLYSKLTVDKSRWQQGNIFACNVLHEALHNHYTFKNLSLSPGK
notes: Fc part only
B2: LLB2-8 (Fc fusion)
chain: B1 chain with S156E
notes: Fc part only
B3: LLB2-9 (Fc fusion)
chain: B1 chain with S156Q
notes: Fc part only
B4: LLB2-10 (Fc fusion)
chain: B1 chain with S156V
notes: Fc part only
B5: LLB2-10-1 (Fc fusion)
chain: B1 chain with S156V, S212A
notes: Fc part only
B6: LLB2-10-4 (Fc fusion)
chain: B1 chain with A148V, S156V, S212A
notes: Fc part only
B7: LLB2-2 (Fc fusion)
chain: B1 chain with L150I
notes: Fc part only
B8: LLB2-3 (Fc fusion)
chain: B1 chain with L150M
notes: Fc part only
B9: LLB2-4 (Fc fusion)
chain: B1 chain with N152S
notes: Fc part only
B10: LLB2-5 (Fc fusion)
chain: B1 chain with R154K
notes: Fc part only
B11: LLB2-7 (Fc fusion)
chain: B1 chain with F155Y
notes: Fc part only
B12: LLB2-19 (Fc fusion)
chain: B1 chain with A148V, N159A, Y161V, N191Q, Y206V, S212V
notes: Fc part only
B13: LLB2-27 (Fc fusion)
chain: B1 chain with N152M, S153N, R154H, S156T, L198M, N210P, S212P
notes: Fc part only
B14: LLB2-29 (Fc fusion)
chain: B1 chain with N152Y, S153D, R154L, S156V, N210E, L211P, S212F
notes: Fc part only
B15: LLB2-32 (Fc fusion)
chain: B1 chain with N152L, S153D, R154F, L198F, N210V, S212A
notes: Fc part only
B16: LLB2-34 (Fc fusion)
chain: B1 chain with N152T, S153Q, R154F, S156A, L198I, N210V, L211P, S212Q
notes: Fc part only
B17: LLS2.33.3 (Fc fusion)
chain: B1 chain with L150E, N152S, R154Q, F155Y, S156E, I192M, L198W
notes: Fc part only; also called LLB2.33.3
B18: 42.8.145 (Fc fusion)
chain: APEAAGGPSVFLFPPKPKDTLMISRTPEVTCVVVDVSHEDPEVKFNWYVDGVEVHNAKTKPREEQYNSTYRVVSVLTVLHQDWLNGKEYKCKVSNKALGAPIEKTISKAKGQPREPQVYTLPPSRDELTKNQVSLTCLVKGFYPSDIAVEWFYDGQKENNYKTTPPVLDSDGSFFLYSKLTVDKSRWQQGNLFACEVMHEALHNHYTYKLLSLSPGK
notes: bivalent; P329G+LALA
B19: 42.8.147 (Fc fusion)
chain: B18 chain with N159S
notes: bivalent; P329G+LALA
B20: 42.8.160 (Fc fusion)
chain: B18 chain with G155A, E158L
notes: bivalent; P329G+LALA
B21: 42.8.161 (Fc fusion)
chain: B18 chain with G155A, E158L, N159T
notes: bivalent; P329G+LALA
B22: 42.8.164 (Fc fusion)
chain: B18 chain with G155A, Q156S, N159T
notes: bivalent; P329G+LALA
B23: 42.8.165 (Fc fusion)
chain: B18 chain with G155A, Q156S, N159S
notes: bivalent; P329G+LALA
B24: 42.8.170 (Fc fusion)
chain: B18 chain with G155D, N159T
notes: bivalent; P329G+LALA
B25: 42.8.176 (Fc fusion)
chain: B18 chain with G155D, Q156S, N159T
notes: bivalent; P329G+LALA
B26: 42.8.180 (Fc fusion)
chain: B18 chain with G155D, Q156S, E158L, N159S
notes: bivalent; P329G+LALA
B27: 42.8.186 (Fc fusion)
chain: B18 chain with D154E, E158L, N159S
notes: bivalent; P329G+LALA
B28: 42.8.190 (Fc fusion)
chain: B18 chain with D154E, Q156S, E158L
notes: bivalent; P329G+LALA
B29: 42.8.191 (Fc fusion)
chain: B18 chain with D154E, Q156S, E158L, N159T
notes: bivalent; P329G+LALA
B30: 42.8.193 (Fc fusion)
chain: B18 chain with D154E, G155A
notes: bivalent; P329G+LALA
B31: 42.8.196 (Fc fusion)
chain: B18 chain with D154E, G155A, E158L
notes: bivalent; P329G+LALA
B32: 42.8.198 (Fc fusion)
chain: B18 chain with D154E, G155A, E158L, N159S
notes: bivalent; P329G+LALA
B33: 42.8.200 (Fc fusion)
chain: B18 chain with D154E, G155A, Q156S, N159T
notes: bivalent; P329G+LALA
B34: 42.8.203 (Fc fusion)
chain: B18 chain with D154E, G155A, Q156S, E158L, N159T
notes: bivalent; P329G+LALA
B35: 42.8.205 (Fc fusion)
chain: B18 chain with D154E, G155D
notes: bivalent; P329G+LALA
B36: 42.8.206 (Fc fusion)
chain: B18 chain with D154E, G155D, N159T
notes: bivalent; P329G+LALA
B37: 42.8.209 (Fc fusion)
chain: B18 chain with D154E, G155D, E158L, N159T
notes: bivalent; P329G+LALA
B38: 42.8.211 (Fc fusion)
chain: B18 chain with D154E, G155D, Q156S
notes: bivalent; P329G+LALA
B39: 42.8.214 (Fc fusion)
chain: B18 chain with D154E, G155D, Q156S, E158L
notes: bivalent; P329G+LALA
B40: 42.8.215 (Fc fusion)
chain: B18 chain with D154E, G155D, Q156S, E158L, N159T
notes: bivalent; P329G+LALA

What follows are binders tested against T1, cyno CD98hc (cynomolgus monkey) (assay: SPR (Biacore)).
T1 construct: also called cynomolgus CD98hc; cyCD98hc
Outline: (§1)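 Engineered Fc polypeptides, made as Fc-Fab fusions with anti-BACE1 Fabs, were assessed for Kd toward CD98hc. Measurements were taken by surface plasmon resonance with a Biacore instrument, in a bivalent format or in a monovalent knob/hole format whose CD98hc-binding site sat on the knob chain alone.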

**Q.** For B1, which Kd is on record?
**A.** 4300 nM

**Q.** For B2, which Kd is on record?
**A.** 3200 nM

**Q.** Which Kd does the source give for B3 here?
**A.** 3300 nM

**Q.** How did the Kd turn out when B4 was run?
**A.** 2700 nM

**Q.** With B5 as the binder, how does the Kd read?
**A.** 4200 nM

**Q.** For B6, which Kd is on record?
**A.** 3000 nM

The binders below were run against T2, human CD98hc (human, UniProt P08195 109-529) (assay: SPR (Biacore)).
T2 construct: also called huCD98hc; CD98 heavy chain
T2 sequence: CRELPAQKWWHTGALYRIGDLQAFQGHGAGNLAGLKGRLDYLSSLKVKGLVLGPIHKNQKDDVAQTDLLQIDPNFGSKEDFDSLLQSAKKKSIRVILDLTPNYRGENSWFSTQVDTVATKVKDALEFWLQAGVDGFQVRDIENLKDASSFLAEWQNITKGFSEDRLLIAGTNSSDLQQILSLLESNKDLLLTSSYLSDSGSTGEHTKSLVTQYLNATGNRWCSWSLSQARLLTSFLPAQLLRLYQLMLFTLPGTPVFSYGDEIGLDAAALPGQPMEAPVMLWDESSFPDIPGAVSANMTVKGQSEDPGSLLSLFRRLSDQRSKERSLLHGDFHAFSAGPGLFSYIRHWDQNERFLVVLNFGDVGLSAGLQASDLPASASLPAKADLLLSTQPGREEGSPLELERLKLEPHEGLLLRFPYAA
Outline: as §1

**Q.** For B1, which Kd is on record?
**A.** 950 nM

**Q.** How did the Kd turn out when B7 was run?
**A.** 1300 nM

**Q.** With B8 as the binder, how does the Kd read?
**A.** 1200 nM

**Q.** Which Kd does the source give for B9 here?
**A.** 1700 nM

**Q.** With B10 as the binder, how does the Kd read?
**A.** 1900 nM

**Q.** With B11 as the binder, how does the Kd read?
**A.** 3600 nM

**Q.** With B2 as the binder, how does the Kd read?
**A.** 790 nM

**Q.** Which Kd does the source give for B3 here?
**A.** 750 nM

**Q.** B4 was tested. Which Kd did it give?
**A.** 680 nM

**Q.** B5 was tested. Which Kd did it give?
**A.** 795 nM

**Q.** How did the Kd turn out when B6 was run?
**A.** 630 nM

**Q.** Which Kd does the source give for B12 here?
**A.** 9200 nM

**Q.** Does B13 bind?
**A.** no binding

**Q.** Does B14 bind?
**A.** no binding

**Q.** Does B15 bind?
**A.** no binding

**Q.** Does B16 bind?
**A.** no binding

**Q.** With B17 as the binder, how does the Kd read?
**A.** 5400 nM

Target: T3, circularly permuted cyno TfR apical domain (cynomolgus monkey)
T3 construct: same design as the human construct; also called cyTfR Apical Domain; cynomolgus TfR apical domain
T3 chain: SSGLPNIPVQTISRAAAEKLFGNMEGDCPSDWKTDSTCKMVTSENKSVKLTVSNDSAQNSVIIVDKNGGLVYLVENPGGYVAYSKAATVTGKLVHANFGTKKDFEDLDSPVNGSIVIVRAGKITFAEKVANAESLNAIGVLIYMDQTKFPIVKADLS
Test: SPR, supernatant, anti-Fab capture
Method: (§2) Clones were expressed in HEK293 cells. Supernatants were captured for SPR by GE Healthcare anti-human Fab capture kit and the affinity to human and cyno TfR apical domain was measured (Table 30). The clones in Table 30 were bivalent and each TfR-binding Fc polypeptide also contained P329G and LALA mutations.

**Q.** For B18, which Kd is on record?
**A.** 11400 nM

**Q.** For B19, which Kd is on record?
**A.** 8030 nM

**Q.** How did the Kd turn out when B20 was run?
**A.** 11600 nM

**Q.** With B21 as the binder, how does the Kd read?
**A.** 10500 nM

**Q.** Which Kd does the source give for B22 here?
**A.** 7450 nM

**Q.** With B23 as the binder, how does the Kd read?
**A.** 4460 nM

**Q.** With B24 as the binder, how does the Kd read?
**A.** 11900 nM

**Q.** With B25 as the binder, how does the Kd read?
**A.** 9780 nM

**Q.** Which Kd does the source give for B26 here?
**A.** 7910 nM

**Q.** With B27 as the binder, how does the Kd read?
**A.** 22200 nM

**Q.** For B28, which Kd is on record?
**A.** 9780 nM

**Q.** For B29, which Kd is on record?
**A.** 8140 nM

**Q.** With B30 as the binder, how does the Kd read?
**A.** 13300 nM

**Q.** With B31 as the binder, how does the Kd read?
**A.** 9340 nM

**Q.** With B32 as the binder, how does the Kd read?
**A.** 12200 nM

**Q.** For B33, which Kd is on record?
**A.** 6210 nM

**Q.** With B34 as the binder, how does the Kd read?
**A.** 5460 nM

**Q.** How did the Kd turn out when B35 was run?
**A.** 11400 nM

**Q.** With B36 as the binder, how does the Kd read?
**A.** 10800 nM

**Q.** How did the Kd turn out when B37 was run?
**A.** 6030 nM

**Q.** B38 was tested. Which Kd did it give?
**A.** 10700 nM

**Q.** How did the Kd turn out when B39 was run?
**A.** 6090 nM

**Q.** B40 was tested. Which Kd did it give?
**A.** 4940 nM

Target: T4, circularly permuted human TfR apical domain (human)
T4 construct: TfR residues 326-379 stand N-terminal to 194-296, loop 297-325 deleted; also called huTfR Apical Domain
T4 chain: T3 chain with K39R, N45S, S47N, G69R, D108Y, S109T, K153N, D155E
Test: SPR, supernatant, anti-Fab capture
Method: as §2

**Q.** For B18, which Kd is on record?
**A.** 1010 nM

**Q.** B19 was tested. Which Kd did it give?
**A.** 3510 nM

**Q.** How did the Kd turn out when B20 was run?
**A.** 1050 nM

**Q.** For B21, which Kd is on record?
**A.** 1140 nM

**Q.** B22 was tested. Which Kd did it give?
**A.** 832 nM

**Q.** B23 was tested. Which Kd did it give?
**A.** 1030 nM

**Q.** With B24 as the binder, how does the Kd read?
**A.** 1150 nM

**Q.** B25 was tested. Which Kd did it give?
**A.** 613 nM

**Q.** B26 was tested. Which Kd did it give?
**A.** 705 nM

**Q.** With B27 as the binder, how does the Kd read?
**A.** 2050 nM

**Q.** How did the Kd turn out when B28 was run?
**A.** 1310 nM

**Q.** For B29, which Kd is on record?
**A.** 598 nM

**Q.** Which Kd does the source give for B30 here?
**A.** 1600 nM

**Q.** For B31, which Kd is on record?
**A.** 924 nM

**Q.** B32 was tested. Which Kd did it give?
**A.** 841 nM

**Q.** Which Kd does the source give for B33 here?
**A.** 505 nM

**Q.** With B34 as the binder, how does the Kd read?
**A.** 394 nM

**Q.** Which Kd does the source give for B35 here?
**A.** 1130 nM

**Q.** How did the Kd turn out when B36 was run?
**A.** 827 nM

**Q.** With B37 as the binder, how does the Kd read?
**A.** 380 nM

**Q.** For B38, which Kd is on record?
**A.** 966 nM

**Q.** With B39 as the binder, how does the Kd read?
**A.** 427 nM

**Q.** Which Kd does the source give for B40 here?
**A.** 293 nM
